Positions count from the first letter of the chain named.
T1: human FcγRIIb extracellular domain, C-terminal His-tag (human, UniProt P31994 43-217)
T1 construct: Soluble extracellular domain expressed in FreeStyle 293 cells; also called FcgRIIb; not shown: His-tag added to the C-terminus
T1 sequence: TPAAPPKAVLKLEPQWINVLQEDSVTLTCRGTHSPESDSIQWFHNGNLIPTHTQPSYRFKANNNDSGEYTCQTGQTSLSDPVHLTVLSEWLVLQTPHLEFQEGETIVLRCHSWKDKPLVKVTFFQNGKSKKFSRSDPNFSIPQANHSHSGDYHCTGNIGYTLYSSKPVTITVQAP

T2: human FcγRIIaR extracellular domain, C-terminal His-tag (human, UniProt P12318 34-217)
T2 construct: Soluble extracellular domain expressed in FreeStyle 293 cells; also called FcgRIIaR; human FcγRIIa (type R); not shown: His-tag added to the C-terminus
T2 chain: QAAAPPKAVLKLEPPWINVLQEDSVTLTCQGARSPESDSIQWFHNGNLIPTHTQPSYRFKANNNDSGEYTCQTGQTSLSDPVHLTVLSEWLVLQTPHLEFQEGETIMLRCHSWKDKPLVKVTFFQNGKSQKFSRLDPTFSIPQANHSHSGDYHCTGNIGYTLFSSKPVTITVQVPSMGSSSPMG

T3: human FcγRIIaH extracellular domain, C-terminal His-tag (human, UniProt P12318 34-217)
T3 construct: Soluble extracellular domain expressed in FreeStyle 293 cells; also called FcgRIIaH; human FcγRIIa (type H); not shown: His-tag added to the C-terminus
T3 sequence: T2 chain with R134H

B1: MS103240H795-TT33/M103202L1045-SK1 (antibody, human IgG1, kappa)
heavy: QVQLVESGGGLVQPGGSLRLSCAVSGIDLSHDDISWVRQAPGKGLEWVSIISYAGSTYYASWAKGRLTISKDTSKNQVVLTMTNMDPVDTATYYCARGVPAYSHGGDLWGQGTLVTVSSASTKGPSVFPLAPSSKSTSGGTAALGCLVKDYFPEPVTVSWNSGALTSGVHTFPAVLQSSGLYSLSSVVTVPSSSLGTQTYICNVNHKPSNTKVDKKVEPKSCDKTHTCPPCPAPEYLGGDSVFLFPPKPKDVLMISRTPEVTCVVIDVSHEDPEVKFNWYVDGVEVHNAKTKPREEQYNSTYRVVSVLPVLHRDWLNGKEYKCKVSNKALPKPIEKTISKAKGQPREPQVYTLPPSREEMTKNQVSLTCLVKGFYPSDIAVEWESNGQPENNYKTTPPVLDSDGSFFLYSKLTVKKSRWQQGNVFSCSVMHEALHNHYTQKSLSLSP
light: DIVMTQSPATLSLSPGERATLSCTTSQSVYHENWLSWFQQKPGQPPKLLIYWASTLAYGVPSRFSGSGSGTDFTLTISSLQPEDAATYYCAGGYGGGRYAFGQGTKVEIKRTVAAPSVFIFPPSDEQLKSGTASVVCLLNNFYPREAKVQWKVDNALQSGNSQESVTEQDSKDSTYSLSSTLTLSKADYEKHKVYACEVTHQGLSSPVTKSFNRGEC
notes: copies: 2 + 2
B2: MS103240H795-TT66/M103202L1045-SK1 (antibody)
heavy: B1 heavy with Y236L, I266V, P345R, K415D, N436A, Q440R, S442E
light: B1 light
B3: MS103240H795-TT67/M103202L1045-SK1 (antibody)
heavy: B1 heavy with Y236L, I266V, P345R, K415D, M430L, N436A, Y438T, Q440R, S442E
light: B1 light
B4: MS103240H795-TT68/M103202L1045-SK1 (antibody)
heavy: B1 heavy with Y236L, I266V, N436A, Q440R, S442E
light: B1 light
notes: copies: 2 + 2
B5: MS103240H795-TT69/M103202L1045-SK1 (antibody)
heavy: B1 heavy with Y236L, I266V, M430L, N436A, Y438T, Q440R, S442E
light: B1 light
notes: copies: 2 + 2
B6: MS103240H795-TT70/M103202L1045-SK1 (antibody)
heavy: B1 heavy with Y236L, P345R, K415D, N436A, Q440R, S442E
light: B1 light
B7: MS103240H795-TT71/M103202L1045-SK1 (antibody)
heavy: B1 heavy with Y236L, P345R, K415D, M430L, N436A, Y438T, Q440R, S442E
light: B1 light
B8: MS103240H795-TT72/M103202L1045-SK1 (antibody)
heavy: B1 heavy with Y236L, N436A, Q440R, S442E
light: B1 light
notes: copies: 2 + 2
B9: MS103240H795-TT73/M103202L1045-SK1 (antibody)
heavy: B1 heavy with Y236L, M430L, N436A, Y438T, Q440R, S442E
light: B1 light
notes: copies: 2 + 2
B10: MS103240H795-TT90/M103202L1045-SK1 (antibody)
heavy: B1 heavy with P345R, K415D, N436A, Q440R, S442E
light: B1 light
B11: MS103240H795-TT92/M103202L1045-SK1 (antibody)
heavy: B1 heavy with N436A, Q440R, S442E
light: B1 light
notes: copies: 2 + 2
B12: MS103240H795-TT91/M103202L1045-SK1 (antibody)
heavy: B1 heavy with P345R, K415D, M430L, N436A, Y438T, Q440R, S442E
light: B1 light
B13: MS103240H795-TT93/M103202L1045-SK1 (antibody)
heavy: B1 heavy with M430L, N436A, Y438T, Q440R, S442E
light: B1 light
notes: copies: 2 + 2

Legend:
[1] = target: T4, human FcγRIIIaV extracellular domain, C-terminal His-tag (human, UniProt P08637 17-208); test: SPR (BIACORE); KD of SG1 divided by KD of the variant
T4 construct: Soluble extracellular domain expressed in FreeStyle 293 cells; also called FcgRIIIaV; not shown: His-tag added to the C-terminus
T4 sequence (P08637 17-208 F176V): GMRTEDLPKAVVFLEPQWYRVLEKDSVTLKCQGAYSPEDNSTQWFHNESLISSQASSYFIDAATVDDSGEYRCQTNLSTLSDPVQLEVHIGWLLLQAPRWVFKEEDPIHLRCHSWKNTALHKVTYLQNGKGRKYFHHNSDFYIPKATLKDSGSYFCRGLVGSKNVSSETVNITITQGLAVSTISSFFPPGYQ
Description: (§1) The kinetic analysis of interactions between these antibodies and FcγR was carried out using BIACORE® T200 or BIACORE® 4000 (GE Healthcare). HBS-EP+ (GE Healthcare) was used as the running buffer, and the measurement temperature was set to 25° C. A chip produced by immobilizing Protein A. Protein A/G or mouse anti-human IgG kappa light chain (BD Biosciences) onto a Series S Sensor Chip CM4 or CM5 (GE Healthcare) by the amine-coupling method was used. […] After the measurement, the antibody captured on the chip was washed off by allowing reaction with 10 mM glycine-HCl, pH1.5 and 25 mM NaOH so that the chip was regenerated and used repeatedly. The sensorgrams obtained as measurement results were analyzed by the 1:1 Langmuir binding model using the BIACORE® Evaluation Software to calculate the binding rate constant ka (L/mol/s) and dissociation rate constant kd (l/s), and the dissociation constant KD (mol/L) was calculated from these values. […] Regarding such interactions, KD values were calculated using the following 1:1 binding model described in BIACORE® T100 Software Handbook BR1006-48 Edition AE.
(§2) Furthermore, the substitutions used in Example 29 for improving antibody half-life and reducing binding to rheumatoid factor were introduced into human FcγRIIb-enhanced Fc variants and their affinity against human FcγRs were analyzed (Table 29). In this SPR analysis, all the data were obtained using mouse anti-human IgG kappa light chain for capturing the antibodies of interest.

[2] = target: T1, human FcγRIIb extracellular domain, …; test: as above
Description: as §1, §2

[3] = target: T2, human FcγRIIaR extracellular domain, …; test: as above
Description: as §1, §2

[4] = target: T3, human FcγRIIaH extracellular domain, …; test: as above
Description: as §1, §2

[5] = target: T4, human FcγRIIIaV extracellular domain, …; test: SPR (BIACORE), antibody captured by mouse anti-human IgG kappa light chain, FcgR extracellular domain as analyte, 25 C
Description: as §1, §2

[6] = target: T1, human FcγRIIb extracellular domain, …; test: as above
Description: as §1, §2

[7] = target: T2, human FcγRIIaR extracellular domain, …; test: as above
Description: as §1, §2

[8] = target: T3, human FcγRIIaH extracellular domain, …; test: as above
Description: as §1, §2

Binder | KD fold for humanFcgRs (SG1 = 1) [1] [fold] | KD fold for humanFcgRs (SG1 = 1) [2] [fold] | KD fold for humanFcgRs (SG1 = 1) [3] [fold] | KD fold for humanFcgRs (SG1 = 1) [4] [fold] | Kd [5] [µM] | Kd [6] [nM] | Kd [7] [µM] | Kd [8] [µM]
B1 | 0.002 | 15.7 | 0.05 | 0.028 | 400 | 300 | 23 | 35
B2 | 0.001 | 4.7 | 0.04 | 0.007 | 590 | 1000 | 32 | 130
B3 | 0.001 | 3.9 | 0.04 | 0.008 | 610 | 1200 | 28 | 120
B4 | 0.001 | 4.9 | 0.02 | 0.005 | 480 | 960 | 61 | 210
B5 | 0.001 | 4.3 | 0.04 | 0.008 | 530 | 1100 | 34 | 130
B6 | 0.002 | 12.7 | 0.03 | 0.013 | 390 | 370 | 40 | 72
B7 | 0.002 | 11.2 | 0.04 | 0.01 | 400 | 420 | 27 | 96
B8 | 0.001 | 11.8 | 0.05 | 0.012 | 500 | 400 | 24 | 79
B9 | 0.001 | 11.2 | 0.06 | 0.013 | 550 | 420 | 19 | 74
B10 | 0.002 | 15.7 | 0.05 | 0.033 | 360 | 300 | 25 | 29
B11 | 0.001 | 16.8 | 0.06 | 0.024 | 490 | 280 | 20 | 40
B12 | 0.002 | 14.7 | 0.04 | 0.021 | 450 | 320 | 30 | 46
B13 | 0.002 | 15.2 | 0.05 | 0.019 | 470 | 310 | 24 | 52
